B1: Tumor necrosis factor receptor superfamily member 6B (Homo sapiens), O95407 (parent)
chain: MRALEGPGLSLLCLVLALPALLPVPAVRGVAETPTYPWRDAETGERLVCAQCPPGTFVQRPCRRDSPTTCGPCPPRHYTQFWNYLERCRYCNVLCGEREEEARACHATHNRACRCRTGFFAHAGFCLEHASCPPGAGVIAPGTPSQNTQCQPCPPGTFSASSSSSEQCQPHRNCTALGLALNVPGSSSHDTLCTSCTGFPLSTRVPGAEECERAVIDFVAFQDISIKRLQRLLQALEAPEGWGPTPRAGRAALQLKLRRRLTELLGAQDGALLVRLLQALRVARMPGLERSVRERFLPVH
partner: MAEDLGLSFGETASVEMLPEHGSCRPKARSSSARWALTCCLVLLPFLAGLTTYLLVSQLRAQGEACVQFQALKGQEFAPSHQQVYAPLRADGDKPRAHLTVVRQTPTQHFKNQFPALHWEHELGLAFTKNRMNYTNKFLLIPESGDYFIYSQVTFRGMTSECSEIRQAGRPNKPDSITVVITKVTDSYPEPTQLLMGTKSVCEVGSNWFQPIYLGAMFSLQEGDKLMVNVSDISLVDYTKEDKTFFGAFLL
B2: Tumor necrosis factor receptor superfamily member 6B (Homo sapiens), O95407 (parent)
chain: B1 chain
B3: Tumor necrosis factor ligand superfamily member 15 (Homo sapiens), O95150-1 (parent)
chain: B1 partner
partner: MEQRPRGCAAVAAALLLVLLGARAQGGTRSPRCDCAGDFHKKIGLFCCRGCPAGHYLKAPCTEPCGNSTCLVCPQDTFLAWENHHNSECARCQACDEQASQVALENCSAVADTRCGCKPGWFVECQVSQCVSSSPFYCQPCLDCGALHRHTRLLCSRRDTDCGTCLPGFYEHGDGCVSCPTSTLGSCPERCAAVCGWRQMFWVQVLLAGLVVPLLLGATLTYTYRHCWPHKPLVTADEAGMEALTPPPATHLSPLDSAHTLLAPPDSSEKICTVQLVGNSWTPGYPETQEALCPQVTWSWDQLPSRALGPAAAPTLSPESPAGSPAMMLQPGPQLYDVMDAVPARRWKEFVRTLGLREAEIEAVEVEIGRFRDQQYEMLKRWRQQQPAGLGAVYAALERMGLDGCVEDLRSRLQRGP

Variants of: B1
Settings: with TNFSF15, O95150-1

| Variant | effect of a mutation on the interaction |
| --- | --- |
| MRALEGPGLSLLCLVLALPALLPVPAVRGVAETPTYPWRDAETGERLVCAQCPPGTFVQRPCRRDSPTTCGPCPPRHYTQFWNYAERCAYCNVLCGEREEEARACHATHNRACRCRTGFFAHAGFCLEHASCPPGAGVIAPGTPSQNTQCQPCPPGTFSASSSSSEQCQPHRNCTALGLALNVPGSSSHDTLCTSCTGFPLSTRVPGAEECERAVIDFVAFQDISIKRLQRLLQALEAPEGWGPTPRAGRAALQLKLRRRLTELLGAQDGALLVRLLQALRVARMPGLERSVRERFLPVH [L85A;R89A] | decreasing interaction |

Variants of: B2
Settings: with TNFSF14, O43557-1
Sequence of TNFSF14, O43557-1 (O43557 whole entry): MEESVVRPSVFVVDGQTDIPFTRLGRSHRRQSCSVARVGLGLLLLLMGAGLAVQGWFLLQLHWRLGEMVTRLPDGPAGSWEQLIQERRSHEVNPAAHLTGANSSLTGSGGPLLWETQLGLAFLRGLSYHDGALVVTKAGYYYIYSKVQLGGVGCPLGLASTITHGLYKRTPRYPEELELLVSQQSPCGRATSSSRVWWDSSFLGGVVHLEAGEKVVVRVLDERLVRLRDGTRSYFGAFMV

| Variant | effect of a mutation on the interaction |
| --- | --- |
| MRALEGPGLSLLCLVLALPALLPVPAVRGVAETPTYPWRDAETGERLVCAQCPPGTFVQRPCRRDSPTTCGPCPPRHYTQFWNYAERCAYCNVLCGEREEEARACHATHNRACRCRTGFFAHAGFCLEHASCPPGAGVIAPGTPSQNTQCQPCPPGTFSASSSSSEQCQPHRNCTALGLALNVPGSSSHDTLCTSCTGFPLSTRVPGAEECERAVIDFVAFQDISIKRLQRLLQALEAPEGWGPTPRAGRAALQLKLRRRLTELLGAQDGALLVRLLQALRVARMPGLERSVRERFLPVH [L85A;R89A] | decreasing interaction |

Variants of: B2
Settings: with tnfl6_human FASLG

| Variant | effect of a mutation on the interaction |
| --- | --- |
| MRALEGPGLSLLCLVLALPALLPVPAVRGVAETPTYPWRDAETGERLVCAQCPPGTFVQRPCRRDSPTTCGPCPPRHYTQFWNYAERCAYCNVLCGEREEEARACHATHNRACRCRTGFFAHAGFCLEHASCPPGAGVIAPGTPSQNTQCQPCPPGTFSASSSSSEQCQPHRNCTALGLALNVPGSSSHDTLCTSCTGFPLSTRVPGAEECERAVIDFVAFQDISIKRLQRLLQALEAPEGWGPTPRAGRAALQLKLRRRLTELLGAQDGALLVRLLQALRVARMPGLERSVRERFLPVH [L85A;R89A] | disrupting interaction |

Variants of: B3
Settings: with TNFRSF25, Q93038-1

| Variant | effect of a mutation on the interaction |
| --- | --- |
| MAEDLGLSFGETASVEMLPEHGSCRPKARSSSARWALTCCLVLLPFLAGLTTYLLVSQLRAQGEACVQFQALKGQEFAPSHQQVYAPLRADGDKPRAHLTVVRQTPTQHFKNQFPALHWEHELGLAFTKNRMNYTNKFLLIPESGDYFIYSQVTFRGMTSESSEIRQAGRPNKPDSITVVITKVTDAYPAPTQLLMGTKSVSEVGSNWFQPIYLGAMFSLQEGDKLMVNVSDISLVDYTKEDKTFFGAFLL [C162S;S187A;E190A;C202S] | disrupting interaction |
